Values quoted from earlier work in patent US7713705B2, “Markers for differential diagnosis and methods of use thereof” (Biosite, Inc., priority 2002, dated 2010).
Read-outs that look alike come from different tables or passages of the source.

Key:
[1] = bloodstream of rats
[2] = plasma, in mice
[3] = in animals

## Platelet factor 4 [PF4]
plasma
  biphasic half-life, first phase: 1 min
  extended half-life, second phase: 20 min
  half-life extended by the presence of heparin: 20 to 40 min
serum
  biphasic half-life, first phase: 1 min
  extended half-life, second phase: 20 min
  half-life extended by the presence of heparin: 20 to 40 min

## S-100β: β subunit of S-100, a 21 kDa cytosolic Ca2+-binding protein; specific to the nervous system
In vivo
  biological half-life: 2 hours

## Prothrombin fragment 1+2 [F1+2]
plasma
  half-life: approximately 90 minutes

## Phosphoglyceric acid mutase [PGAM]
[1]
  half-life: less than 2 hours

## Interleukin-6 [IL-6]
bloodstream
  half-life: 252 min

## thrombin-ATIII complex [TAT]
bloodstream
  half-life: approximately 5 minutes

## Tumor necrosis factor α [TNFα]
bloodstream
  half-life: approximately 1 hours

## Interleukin-1β [IL-1β]
In vivo
  biphasic physiological half-life, first phase: 5 minutes
  biphasic physiological half-life, second phase: 4 hours

## C-reactive protein [CRP]
bloodstream
  half-life: approximately 19 hours

## CK-BB: brain-specific creatine kinase isoform, an 85 kDa cytosolic protein
In vivo
  half-life: 60 to 300 min

## Malondialdehyde-modified low-density lipoprotein [MDA-modified LDL]
[2]
  half-life: less than 5 minutes

## Platelet-derived growth factor [PDGF]
[3]
  biphasic half-life, first phase: approximately 5 minutes
  biphasic half-life, second phase: ~60 min

B1: β-thromboglobulin (protein, UniProt P02775 48-128, looked up)
Beta-thromboglobulin: GKEESLDSDLYAELRCMCIKTTSGIHPKNIQSLEVIGKGTHCNQVEVIATLKDGRKICLDPDAPRIKKIVQKKLAGDESAD
modifications: Beta-thromboglobulin
plasma
  biphasic half-life, first phase: 10 min
  extended half-life, second phase: 60 min
serum
  biphasic half-life, first phase: 10 min
  extended half-life, second phase: 60 min

B2: neuron-specific enolase (protein, UniProt P09104 2-434, looked up)
Gamma-enolase: SIEKIWAREILDSRGNPTVEVDLYTAKGLFRAAVPSGASTGIYEALELRDGDKQRYLGKGVLKAVDHINSTIAPALISSGLSVVEQEKLDNLMLELDGTENKSKFGANAILGVSLAVCKAGAAERELPLYRHIAQLAGNSDLILPVPAFNVINGGSHAGNKLAMQEFMILPVGAESFRDAMRLGAEVYHTLKGVIKDKYGKDATNVGDEGGFAPNILENSEALELVKEAIDKAGYTEKIVIGMDVAASEFYRDGKYDLDFKSPTDPSRYITGDQLGALYQDFVRDYPVVSIEDPFDQDDWAAWSKFTANVGIQIVGDDLTVTNPKRIERAVEEKACNCLLLKVNQIGSVTEAIQACKLAQENGWGVMVSHRSGETEDTFIADLVVGLCTGQIKTGAPCRSERLAKYNQLMRIEEELGDEARFAGHNFRNPSVL
In vivo
  biological half-life: 48 hours
